According to paper PMC8990738:

Target: depolymerase Dpo71 (Acinetobacter baumannii phage vB_AbaM-IME-AB2)
Experiment: SEC; Superose 6 Increase column on AKTA FPLC, equilibrated with PBS; gel filtration markers of 150 and 200 kDa; purified Dpo71 alone

depolymerase Dpo71 (enzyme)
stoichiometry N: 3
